Reference: paper PMC12093266, “Synergistic action of two radical SAM enzymes in the biosynthesis of thuricin CD, a two-component sactibiotic†” (Chemical Science, 2025)

B1: TrnD (enzyme)
chain: MKKYFRLYPYCHLEIGETNSCLYDISSGKMIRVNRENAELLRQCQENVPIESINMDLGILDELIKMNLGTYYANPQFIEPFFETNDTKNRIFGKNNILRQMFILTSTDCNMNCKHCNTDSTVFRKTGCKIWPKSINLNALTQSHWRKILEAFYNLHGEELTFIGGEPFLEFDFIKNIVEIAQEVGISKFSIFTNGSIINDTILNFLMENKIKVYIQIFEVDENKFKAFTNSDIPSIQIIDNIKKLNNHHLDLQLRILITRDNDNNLKKIVNTLQKETNVKDIKIEFLYPKPDNSYYSKKYIPLMYDKKREFSHVNVQKMQFLHQYNPSFFGQITIRRDGKVVPHPMLLTRVIGDLQQDDLFTIINTEEYQEYSTLNKEKISKCSTCAYKYNCMDDRVIENFATGDLYGMEYCNF
modifications: fluorescently labeled (in the MST of Fig. 5D only)
B2: equimolar mixture of TrnD and TrnB (complex)
chain 1: B1 chain
chain 2: MEVLNKQNVNIIPESEEVGGWVACVGACGTVCLASGGVGTEFAAASYFL

Target: T1, TrnC (Bacillus thuringiensis, fluorescently labeled with RED-NHS (in the MST experiments where TrnC is the labelled partner))
T1 construct: TrnC, radical SAM (rSAM/SPASM) sactisynthase encoded in the thuricin CD biosynthetic gene cluster of Bacillus thuringiensis; Likely holds three [4Fe-4S] clusters after reconstitution; also called 6× His-tagged TrnC; wild type TrnC; source: E. coli, purified to near homogeneity and reconstituted under anaerobic conditions; also E. coli lysate, coexpressed with non-tagged TrnD from a …
Assay: MST; TrnC fluorescently labeled with RED-NHS; series of diluted TrnD (or TrnD(ΔRRE), or an equimolar mixture of TrnD with TrnA or TrnB) mixed with it in capillaries; Monolith instrument; aerobic conditions
Settings: both partners purified

| Binder | Kd [nM] |
| --- | --- |
| B1 | 2390 ± 460 |
| B2 | 620 ± 160 |
